Among the data in a protein production outcome set (Wang et al. 2014) are protein production values, retold here.

The data set in a line: label from the status in PepcDB records.

In the case of “MISRHLQNNLMSVDPASSQAMELSDVTLIEGVGNEVMVVAGVVVLILALVLAWLSTYVADSGSNQLLGAIVSAGDTSVLHLGHVDHLVAGQGNPEPTELPHPSEGNDEKAEEAGEGRGDSTGEAGAGGGVEPSLEHLLDIQGLPKRQAGAGSSSPEAPLRSEDSTCLPPSPGLITVRLKFLNDTEELAVARPEDTVGALKSKYFPGQESQMKLIYQGRLLQDPARTLRSLNITDNCVIHCHRSPPGSAVPGPSASLAPSATEPPSLGVNVGSLMVPVFVVLLGVVWYFRINYRQFFTAPATVSLVGVTVFFSFLVFGMYGR”, the protein production result is reported as “failed”.
Then “MISRNLKIYFRDRTAVFMSLLTVLIIIGLYAIFLGNNMEEMFKQASGKTVGIQELVNTWVIAGILSITPVTVSLAVFSLKVHDEELSIARSFAITSASRWRIVISYIVSGLVASFLLSVITLFVGEMYIWLTGGEFLPFESWIRLIGIILINVLCCSSIMFFIASLVKKASAFSSVSTIVGTVIGFIAGIYLPIGSLPAAVQTAMKCFPFTYGASTIREIMTKEPLKEVFAGNTGAMDATKEMIGITIYWGDKTVTTGLSLLILSAFAVVFGVLSVILMKRQTK”, with “failed”.
To “MISSLTTIISTGTNLGSGTDDDIYFGIHLNNGQKKEWLLDKETYNDFENGATDEYYLYINDMDFLPTMVDKVWVRKNSTGSFAGNWFFKALRIDANGNDVLSVSPNEWITDLEHHHHHH” belongs “not failed”.
Then “MISSMNFWRCRCSKDDAEQSMLYSYNNGFLGFSAKLNSTQAASLAKLNQVITVFKSKSLKLHTTRSWDFLGLAVDNARRTPPPQLAYGSDIVVGIFDTGLFISLKLLLLSILGIWPESESFRETPEAKPIPSSWNGKCVGGEDFDPSVHCNRKLIGARFYLRGFEETYGTIDFTRDPEYRSPRDYLGHGTHTASTAVGSVVRNVSGFFGLGRGTARGGAPLARLAVFKTCWGKDLEGVCTEADILAAFDDAIHDGVHVISASFGYSPPLSPFFESSADIGAFHAAERGISVVFSTGNDGPDPGVVQNVAPWAVSVAASTVDRSFPTRIVIDGSFTLTGQSLISQEITGTLALATTYFNGGVCKWENWMKKLANETIILCFSTLGPVQFIEEAQAAAIRANALALIFAASPTRQLAEEVDMIPTVRVDILHGTRIRNYLARSPTVPMVKIGPSKTVIGETTAPSVAYFSSRGPSSLSPDILKPDITAPGIGILAAWPPRTPPTLLPGDHRSIEWNFQSGTSMSCPHVAGVMALLQSAHPDWSPSAIRSAIMTTAYTRDTSYDLILSGGSMKSTDPFDIGAGHINPLKAMDPGLVYNTRTDDYVLFMCNIGYTDQEIKSMVLHPEPSTTCLPSHSYRTNADFNYPSITIPSLRLTRTIKRTVSNVGPNKNTVYFVDIIRPVGVEVLIWPRILVFSKCQQEHSYYVTFKPTEIFSGRYVFGEIMWTNGLHRVRSPVVVFLSNAGFLASS”, with “failed”.
With “MISTTTVSDLYITFGLIGVFLAGMIAVLYATNRKSDSFSDYAVGGRSYGPWFIAMCYTNSWWPGATFTAFFALSVGGALGFYGMVYATLGVTAMYLMANRAWTWGKRFNLTTQPDLLGMRFNSPVVKRIASIIGIISVFPWVVMGIQALATLFQFASFGRWGVTTCLLVGVAVILIRQYWTVSMGMRGLIMTDMYQGLIAYVLCAALCIFLMFGAQASFSNLSQLPASMLVIPGGTGSTYGPMYMFSLIFTGVIGSMCWPMSFQRIYTASGVRSVKKGTLLTILLVGGFYGILMLFAAAISQDPNVAAHPQHGWFLSLFDIGGPWLLAVAIMIVLAASIGHVDGCVQVCGTQFANDLATWNTPRSDREKTILAKAGMVVFIAAASLLAYLTFDYARLQLLAQISYQGIIQLAVPLFFGVFSRRGNKQGAIVGMLVGIVIAIVLTTIYPDDIPGLGSLTSGIVGLIFNAGIFVACAVAIKPSAEEVRRVDELFAMAAPQRHPAGVAPVMS”, the protein production entry is reported as “failed”.
To “MISVFDIYKIGVGPSSSHTVGPMKAGKEFIDDLRAMGKLRDITKITVDVYGSLSLTGKGHHTDIAIIMGLAGNSPEKVDIDSIPGFIARVEETERLPVGMHCHTVSFPREGGMNFHKTNLELHENGMQIHAWIDDEKVYSKTYYSIGGGFIVDEENFGK” belongs “not failed”; to “MISVGKGKIMITPDHNIIKPIAIVLPQFHPIRENNLWWGEGFTEWTNVVKGRPRFRGHYQPHLPKDLGYYDLRLPETRKAQAALATKYGIYGFCYYHYWFNGRRILESPVDAMLESGEPDFPFMLCWANENWTRNWDGSYNKVLLEQKYSKEDFVNHARHLIRYFKDDRYIKIDGRPVFAIYKDDIGEDIEKYLLLFRNELLKNSINVFLCRFERNIGTSRDLNRAFQVFDAGIEFQPLARQFSYLINYNNRLSRRIYKTLKKHFCFCKNIDDVYVYSHLVDNDLKYDFQQGWPIFPGVCPGWDNSARRRDTTAIIFDKSTPEIFKLWVREKIRITDWNLLPERFLFVNAWNEWAEGNHLEPCEKWGTQYLAALQAGINEM”, “failed”; to “MISVTAYEWIGLFIGMIIGGLAEAWGISNPEVLIRLGKWEDRLFIGCIAIAIGAGAIVLYGLSALGVSFHWGIKPDYVIGVALGGIIFGTGIAISGYVPGTVWMALGEGRRDAIYAVLGGLLGAASWTLIYQTSFGHWLTTYLNFGQIYFGGKVGTDLKLGFIIAIVWAIIMFVIAYTLPRYRKGKSCAYLSTHKNYKLDAEEEKEYIETANFLMEGTSMPIGKNNLPEKVNYHWTVSSKLFGVTMLSVGIIIGLTVVLEMFLHQIFGESTTYSWIVAQIWLPAGYWQYSTIVVHTIGWEPFSDIGTLFGAFLASIFFTRRFQAFSNVIPPSWKERFGNSQIKRAAGAFSGAYLMLLGARMADGCASGHILSGDLQMAVSSLEFFIFVVIFLLLVAHIIYRR”, “failed”.
With “MISVVGAGGKTSLLFWLAELLQASGRRVLITTTTHMFMPTSHWPVVFCRDPAMLPHASLTSPISFCFHSWKANQGKVQGFTPEAIDALVQRPECDVILIEADGSRGMPLKAPDEHEPCIPKSSCCVIAVMGGHTLGAKVSTENVHRWSQFADITGLTPDATLQLSDLVALVRHPQGAFKNVPQGCRRVWFINRFSQCENAIAQSELLQPLQQHDVEAIWLGDIQEHPAIARRFVNLEHHHHHH”, the protein production result was “not failed”.
As for “MISVVIPLFNKAPHIVRAVESVLEQSSPADEIIVVDDGSTDGGGELLLPYVAKHGVRLIRQENAGVSVARNHGVNLAASDYVAFLDADDFWLPNHIATLRRLIDNYPEASLFSTALIIERDGRQWRSKSTYSDGWEGVVQDFFTEYLRRFALVSSTTSCVRKKDFCSIGGFPVGVKYGEDFICWMKMALFYRVAHAEVVTAVYCLDAVNRTDQLQETDVLAPLQFIAKLLQSNELDNAQRVGLAQLFDHISFSTGARFRINSNLNGVNAIRNLSWEMGHYRVSLLMSALRFTPSLLLQAAKRFRYRQVSVV”, the protein production entry was “failed”.
Take “MITIENSKFKAGIAERGAELQSLVNKADNYEYVWTGDKTFWNRHAPILFPSIGKSNQDQYRLGAKTYPMSQHGFARDYDFDVSDKSDSAVTFTQHQNAETLKKFPFEYTLAVTYMLTDGGLSVHYTVTNDDSKSMPFALGFHPAFNVGLKADGSFDDYDLTVEPLNSPLQRFGIGPVPFRNGDVEDIPGAEGNRLPLTHDLLDGGLVILANSEIAKATLASPHHDHSITLDISDFPYLTIWSPEHKKAPFIAVEPFDGLPDQAGEPTDWYTKLGNTTLSAGANKQLALKVELHLEHHHHHH”: the protein production entry was “failed”.
To “MITIRNKIGQMLIMGFHGSELHDNSPVAQWLSNDGLGGVLLFDKDLSTGIYGKNLRNQAQIKQLIRQLNRYASMISGGNDNLPLFTAIDYEGGVVDRLSKIEGCPPTMKARELAKLSSDDFDEEVTQMAMTLQSLGFNLNFAPVVDLNLNAHAGIIGNLGRSFSSNPEVTIRLAKQFVDVFSRYGIACAYKHFPGHGSATGDTHEGFVDVTETFQTDELIPYRSLLKDLSNPFMVMTAHVINKHLDSKGLPATLSYDVLTLLLRQSIGYDGVIISDDLQMHAISNHYSLEDALCLTINAGADMVIFANQLGTITPPEVIDVIEKLVIDKQIPYQRIDEAYRRIVRLKQQIICSELINT” belongs “failed”; to “MITKDVKEQLIQVSGPENFDDSNAGRLVYSYDATPQYQSMPDAVIAPRNTDEISRILTICSEHRVPIVPRGSGTNLCGGTCPTEGGLVLLFKHMNQILEIDEENLTATVQPGVITLDMIRAVESKGLFYPPDPSSMKISTIGGNINENSGGLRGLKYGVTRDYVIGLEVVLANGDIIRTGGKLAKDVAGYDLTRLFVGSEGTLGIVTEAIVKLVPKPETKKTLLALYENIDAAAQTVSDIIAAKIIPATLEFLDQPTLLVIEDYAKIGLPTSAKAVLLIEQDGPFETVERDMEKIEAICKKGDAVSVQTAQTEEEAFALTEARRSALSALARLKPTTILEDATVPRSEIANMVKAINDIAAKYDISICTFGHAGDGNLHPTCTTDIRNKDEMERVEQAFAEIFEKAIELGGTITGEHGVGEMKAPYLEMKLKKEGIDAMKALKAAFDPRNILNPGKMFAKDARKRVVAER”, “failed”.
Then “MITKFPPQWQEKLDQVAFTHLTPIQEQAFQPIVDGKNFLGISPTGTGKTLAYVFPNLLALTPKKSQQLLILAPNTELAGQIFEVTKDWAQPLGLTAQLFISGTSQKRQIERLKKGPEILIGTPGRIFELIKLKKIKMMSVNTIVLDEYDELLGDSQYDFVQKISHYVPRDHQMVYMSATNKVDQTSLAPNTFCIDLSEQTNDAIQHFYLMVDKRERTDLLRKFTNIPHFRALVFFNSLSDLGATEERLQYNGAAAVSLASDINVKFRKTILEKFKSHQLSLLLATDLVARGIDIDNLDYVIHFDVARDKENYTHRAGRTGRMGKSGIVITFVSHPEDLKKLKKFAKVSEISLKNQQLHFIN”, with “failed”; and “MITLNAWYVTWTELYKKKTVKMTTIYKNHSYYNSRVKNSIGKMYLQDIKTYHVQKFLNDLIDSGLAHGTVSNIRFMLSDMFDKAVLSEYIRKNPCIGVEMPKEVKKERLEHHHHHH”, with “failed”; and “MITNQRIARLNAWGAHGFTATGVVLAFLATIALFNNEPKACLLWLGAALIVDGVDGSLARKVNTTSVLPHFDGSVLDLVIDYLTYVFIPALFIYRYIPVPDYTLLLSVSVILVSSLFCFCNVDMKSKDNYFQGFPAAWNVVALCLYILSPAPWLTFITIIALALLTMTRMKFLHPFRVRRFMPLNIAVTTVWLLASALLIINHPHNGPLVMGLWLAMSAYFLGICIWRTSLEWLGRLKA”, with “failed”.
Turning to “MITRNAPRHALLGLILAGSLGTFVALPAVADNAAPAEQGQTTPALGSNLQTLKELDGKAPARRALNIQTWNTAEGARVLFVESRELPMFDMRLTFAAGSSQDQKSPGIALLTNAMLNEGVKGKDVNAIAQGFEGLGADFSNGSYRDMAVTSLRSLSAADKRDPALKLFSEVVGKPTFPADSLARIKNQLIASFKTQKQNPGAIASKELFNHLYGDHPYAHPSEGDAKSINAITLAQLKAFHAKGYAAGNAVIALVGDLSRDEAQAVAAQVSASLPKGPALAKVADPVEPKAGTTHIEFASNQTHLMLAQLGIDRNDPDYAALTVGNSVLGGGGFGSRLMTEVREKRGLTYGVSSGFTAMQVAGPFMIGLQTRAEMSENTLKLVQDIVRDFLANGPTQKEIDDVKRELTGSFPLTAASNSAIVGQLGAIGFYNLPLTYLEDYMAAAQSVTVEQVKAAMSKHLSADKMVIVTVGPTVEQKPLPAPTDKPTRQPVGVPEH”, the protein production entry is listed as “failed”.
Consider “MITSIARQSIILKCLRQKSVLVSNYELYYTAGLAKKCFGIAVDADMEPKQLLEELQKHIDKVSPADEQEKYLIHLLGNYEPDDTHDEQTVELFHMGETEEHIWQVSIT”, for which the protein production result is given as “not failed”.
For “MITSLPDNYSPQRQIPIKPDITFVHVRLAHFIAMGAGIGLIRYMPGTAGTIAAFPFYRFLDSIIEPVSLLLIIDVFFIMGIWACAVTGRALNSPDHSGMVWDEIVAFMLVLFFTPDHWTWQLAAFFLFRFFDIVKPAPIGYLDARLKGGLGVMLDDLLAAFYTLLCLAGWKSMVLFESYF”, the protein production entry is “failed”.
